A protein production outcome set (Wang et al. 2014)

Assay: label from the status in PepcDB records
In the case of “MKWPWWPVCVPLSKRLTLPLPSTANPVVQPSRLALACANRLFEAADNRERFLQALMTPPAYPATVLWCGEPAAALPFAALPPLPWQPPWVSRFVAGSPTGQHPLHAAGAYYCLDSSSVFAAVPLLTLPQEPSLVIDVCAAPGGKSLFAWRSLHPRYLICNETIGKRVGKLIGNLKRCRVHPVGVTSWDSEVLAAEFQGTADVVIVDAPCSGQSLLAKGQKAEGCFHPLTIRHNQRRQKRILAAATTLVRPGGWLLYSTCTFSQDENEDVAAWLMAKFPHLLPQPVPALAAYQSHLAAFPCYRLWPHQGEGAGAFTILWQHQGKGESNPLPDLGNRRAFGDRWRWQSSSQPA”, the protein production was “failed”.
With “MKWRCLIYIETRGDILFMTKWFNVGKIVNTHGVRGEIRVISRTDFPEERYKVGNTLYISNEKGTDYLPVKVTSHRQHKTFDLLTFEGYNNVDEVEKFKGSLIKVPEEQLGELAEGEYYYHEIIGCSVVTEEGEALGTIKEILSPGANDVWVIKRPKGQDLLIPYIDDVVLQVNIENKLVTIHVMEGLLLEHHHHHH” the protein production was “not failed”.
For “MKWYTKYLQVYEKPFSEAPQEIVEEVRNKLKLLQSDNPLVTVSLIGYNEEKHLLASLWSLSEMKCKYPIEIIGTDNDSKDQTATIYEATGIPYVIEHQHSCGHARLCGLKRAKGKYHINIDSDTMYPPHYVETMVDALERPGIVAVSSLWSYIPDKEHSWVGLKIYEFIRDIHLWIQSIKRPELSVRGLVFAYRTDYARQVGIRTDIRRGEDGSLALRLKEYGNIYFIRKRKARAITGYGTISADGSLFNSFKVRAIYALKNIGRVFTRKKEYKDEDDNLIKSLEHHHHHH”, the protein production was “not failed”.
In the case of “MKYAITGATGHLGQQIVAAMRPLVATTELYLGVHTLSKAQVYQQQGLHIAAIDYQQPEQLRAFFQDSDVLIYIPSKSHDSYSRVQEFENVLAAVQQANVHHFLVMGFIADQVNNPFALSAFYGYVPRRLAGSDINYTIVRNALYADPLVPYLPELIERHNVVYPMADQALSFISQADSAAAFAKVATTPDLLQRGRIYTLTQSRAYTMPELATVLSQVSGQLIGYRPVSLQAFSNMYNQNGEGPMLASMYAGGARGLLATVSDDYQLIMDRPAQSLLDYLQTNYQKS”, the protein production was “failed”.
For “MKYSLGIDLGTTFSVVSIIDENGAPKVLKNKEGNTLTPSVIYFSGEEIIVGDDAKEMQAMGDNNIACFFKRNMGDENFVLEFQNKYYNAEDLSVIVLKKLKKDAEDFLKAEVKDAVITVPAYFNNIQRQSTINAGKRAEFNVLSILNEPTAAAMAYGMKASGENKNILVYDLGGGTFDVTLVHIGEELIKVLSTDGDHELGGKDWDDRIAMYIGEKFFEKFGVNPMDDIEYYNDILVKCENVKKHLSKRESTDISIYYCDLSEKFTITKEIFLGLTGDLLQRTKSLSDDVIKSAGLTWEDIDGVLPVGGSTRMPMVLDFIKEVSKKEPIVGINVDEAVSIGAAIKASMENATNTPTLRREEKALFTLGGYKKTEDVMSHSLGMIALNSTGERYINSIIIEKNKKIPCTEKRPYEIRTGRNRNNVLEVYMLQGESEEISDCTILGKYVFYDIEYVGRKPSIIDIEYSYNKNGVVDVFATQRETAKKLPLKIEKLSEDFIFEEELNEKEEAVHKNIVIAIDLSGSMRGKPLEEAIEASKTFVDSIDEGSFSLALIGFADKVKTLINLTEDREEIFRAIDGLKKADVGTSTMSEPFSEAYNILKDAYGDCFVVVLTDGQWYGKKDIMAEVNKCKEYEIEIAAIGFGNAKKDFLDKIATCEENSIFTEVSNLKQSFSRIAKVISRSDGSIKIFQKSNSIKLR”, the protein production was “failed”.
For “MKYTVYLFDFDYTLADSSRGIVTCFRSVLERHGYTGITDDMIKRTIGKTLEESFSILTGITDADQLESFRQEYSKEADIYMNANTILFPDTLPTLTHLKKQGIRIGIISTKYRFRILSFLRNHMPDDWFDIIIGGEDVTHHKPDPEGLLLAIDRLKACPEEVLYIGDSTVDAGTAAAAGVSFTGVTSGMTTAQEFQAYPYDRIISTLGQLISVPEDKS”, the protein production was “not failed”.
For “MLAAGMSRRMGFNKLLAPLCGKRVLWHVLELVARFEGVLEGAVVVTSGEVADVLRRERPPGRRGLFRVVVNREQWRGLSHSIRLGVEASPGARAYLFFNGDRPFVSKHTVARVLALYMARRPLIAAPMAGGAIAPPVVVDSRLRGELLRLSGDTGVRSLFGKYRDSLAVVEVDDPGLHLDVDTPEDLERASKMCSQLGGGPREKPLEHHHHHH”, the protein production was “failed”.
In the case of “MLAERGANITGLDISGPMLQQGREKAQATGVDDRVEFMRGDAARLPFPDDHFDTVFAMRFFHLADTPAAFLAEMRRVSKEQVFFDTFNRFSTRSIYNWALPMGSRLYSRWEIDRLLDGAGLELTDANHDWLLPYGFYRKIPNELAASFRSLDTALGGTPLGEKLASVSYWNTHVLEHHHHHH”, the protein production was “failed”.
For “MLAGADKVFLYAKPEQIEAFVAAAQSAGVRQVVLLSSVSVVMATSEQNPIARMHRTVELAIERSGLDWTFIRPGMFATNARWWWGESIRGEGVVRLPYPEAQNAPVHEKDMAALAVTALTEPGHSHQAYTVHGSESLTLRRQVEHIGEALGRPIRVETVSVEQAREEFAEKAPSNVAEALLRMWAAADGVPAPVSVIVDRITGRPAHTFAQWAADHADDFR”, the protein production was “failed”.
In the case of “MLAIFQKAFAHPPEELNSPASHFSGKTPKLPGETLSDFLSHHQNNAFSMNFGDSAVLAYARQETSLRQRLFCGLDGIYCMFLGRLNNLCTLNRQYGLSGKNSNEAMFVIEAYRTLRDRGPYPADQVLRGLEGSFAFVVYDTQTSSVFSALSSDGGESLYWGISGDGSVVMSDDIQIIKQGCAKSFAPFPNGCMFHSETGLKSFDHPTNMMKAMPRIDSEGVLCGASFKVDACSKINSIPRRGSEANWALANSR”, the protein production was “failed”.
For “MLAILGFVMMIVFMYLIMSNRLSALIALIVVPIVFALISGFGKDLGEMMIQGVTDLAPTGIMLLFAILYFGIMIDSGLFDPLIAKILSFVKGDPFKIAVGTAVLTMTISLDGDGTTTYMITIRAMLPLYKRLGMNRLVLAGIAMLGSGVMNIIPWGEPTARVLASLKLDTSEVFTPLIPAMIAGILWVIAVAYILGKKERKRLGVISIDHAPSSDPEAAPLKRPALQWFNLLLTVALMAALITSLLPLPVLFMTAFAVALMVNYPNVKEQQKRISAHAGNALNVVSMVFAAGIFTGILSGTKMVDAMAHSTRSLIPDAMGPHLPLITAIVSMPFTFFMSNDAFYFGVLPIIAEAASAYGIDAAEIGRASLLGQPVHLLSPLVPSTYLLVGMAGVSFGDHQKFTIKWAVGTTIVMTIAALLIGIISF”, the protein production was “failed”.
With “MLAMHGSKEKMMTSYQTIIQNHQPLAPARYTAKRIIKNDAEALQIATELSQSFKEKSIQRDAERVLPFDEIEAFSQSGLWAITVPKRYGGAEVSSLTLAKIIALFSGVDGSIGQIPQNHFYALEVLRNTGTEQQKQRLYQEVLSGLRLGNALAEFKPKNASLKQTQIKAIETGYVINGEKFYCTGSLFAHRIPTLVIDEEGREYLAFVRSDSEGLSLIDNWTGFGQRVTGSGGVKFTQVFVAAEDVIPFDSAFQHPTLVGPFAQLMHAAIEVGIARAAFEEALKRVHAARPWIDSNVDAAAQDPLTIYEIGRVAADVHASEALLKHAALTIDEVRLNTNVETIAKASIAVAKIRAHSTETALKASSKLIELAGSRGSQSVDGLDRFWRNARVHTLHDAARWKYYFIGNYVLNDIFPPRRGTL” the protein production was “failed”.
For “MLAVLIGQHGEYLLIFLVSPGQFQEGVMTVHDHWQMDASAPELYERYLVPAITSVWADDLLDRIDPAKGECVLDVACGTGVVARRLAERGHVGRLVGIDLNGAMLAVARAKSSDVEWTEGSALDLPFATRSFDVVLCQLGLQFFPDRPQALREMARVLKPSGRLGLSVYSAIEHTPAANAFVQALDGFLGPESSRTKRAEHLTCNADEVGNWVRQAGFDRVGVETVTKQIGFPSALDYVRFQLTATPMAALLTREDDAGRERTIAAIADDVAARLDPSILANGRLTFPQESFVVVASLR”, the protein production was “failed”.
With “MLAYQGLFQNGLMQVSPSYFSQTYLLGDVNYQTVGLDDKGAIVEKYSDLINSLDDKTNFQLTIFNQKVNLEKFRKSILYPLQEDGFDTYRDELNRMMDANLEAGENNFSAVKFLSFGKSDQTPKLAFRSLSQIGEYFKSGFSEIDVSLGLLGGEERVNVLADMLRGENHLPFSYKDLTLSGQSTKHFIAPTYLSFKHKNHIELDDRLLQIVYVRDYGMELGDKFIRDLMQSDLEVMISLHAKGSTKSETMTKLRTKKTLMESQKIGEQQKMARTGIYLEKVGHVLENNIDEAEALLQTMTQTGDKLFDTVFLIGVLADTEDQLKQSLDIIKQVAGSNDMIIDNLTYMQEAAFNSLLPFGKNYLEGVSRSLLTSNIAVNAPWTSVDIHDKGGKFYGINQISSNIISIDRGKLNTPSGLILGTSGAGKGMATKHEIISTKLKEADSDTEIIIVDPENEYSIIGQAFGGESIDIAPDSTTFLNVLELSDENMDEDPVKVKSEFLLSWIGKLLDRKMDGREKSLIDRVTRLTYKHFDTPSLVEWVFVLSQQPEQEAKDLALDMELYVEGSLDIFSHRTNIKTDSHFLIYNVKKLGDELKQIALMVIFDQIWNRVVKNQKLGKKTWIYFDEMQLLLLDKYASDFFFKLWSRVRKYGAIPTGITQNVETLLLDANGRRIIANSEFMILLKQAKSDREELVHMLGLSKELEKYLVNPEKGAGLIKAGSTVVPFKNKIPQHTKLFDIMSTDPEKMRTLEHHHHHH” the protein production was “failed”.
For “MLCRKNSSLVDRGNVPVYLNVYDLTPINGYAYWLGLGVYHSGVEVHGIEYAYGAHEYPSTGIFEGEPKQCEGFTFRKSILIGKTDLGPLEVRATMEQLADNYKGSSYNLITKNCNHFCDETCIKLTGNPIPSWVNRLARIGKFSGFMCNCVLPATINATRFGNNRVNQDKSCEAENEKKKLTSVSSRERSTIATPSSSSSSPSVQVRGRSRKRRPRALQPSSPLTLGSSSV”, the protein production was “failed”.
For “MLDAKTSTLLWAAETFTLAVLLGTLWLHRPSRRHNLYFAAGFLATGFGTVMVALRGDISSFLSIQVGNTLALSAFGFWLAGLLSLEQRKLGGWIAIPALLWIAGMFVPSVPEDMVARILLYHASAATGYFMLAGVLLGSRARASRSRKVLATILILQAFAGAIVASIVIPANAAVPNAIPMTSALSISGMLGFTAIIMISAKIIMEDTEIRLHRLAMTDHLTGVLNRRGLLEEFEHIKKRSHGSDRYVALVLFDIDHFKKINDRYGHQSGDAVLVHFCNIAQRVIGERGLFVRMGGEEFALVAEVESPSSTVTLAEAIRSNLRLSKITARNEAIKVTTSVGISEAMIKDADLSVMMTEADRALYAAKKAGRNRTVIHVNSANVVVPAPDRDENPMDNNADRQVAALNRISAIASR”, the protein production was “failed”.
With “MLDDVLALIREHDRFFITTHLGPDGDAVGSQLALGRFLEKMGKSVAMVNADEVDYNLDWMPGAGDIAVFDGSLGQHEALAEAEVAFVLDTNDEERIGKVGSLVRDATATTVLVDHHLEPEHWFDVFFVREEAAATGELVYEIIDGLAPDLIDEGIATALYTAIMTDTGSFRYSSVTPALHRSVADILERGGIGPAPIHETIYDRKSMPGLRLLGRMLNRIRLRYNGQLGYSVVTQRMVEDTGASWDDKQGFVNYVLSIEDVKTALLFSETDDGAKISFRSEADVRVDQWARHFGGGGHRNAAGAYVKRPTFEKTIETVIDAASDYIAFDARHAPDDDLSPEDQSYLETLLDDPSDSPLEHHHHHH” the protein production was “failed”.
For “MLDKNKFIQINLVPCHFCYSFLSYASILEAIMKFKNILVVLNPSNEKQYALARAVRLVEEQKNETKVKITALLSVYDLSYEMSALLSSEERSEMHQQVIEKHRHAVQYYLDKYANPEIELQSHIVWNSNEADAINEEVENNNYDLVVKYTKDEEKLTSLIFTPIDWQLLRKCPIPVLMVRDGDWKHPRRILVAVNVSGEQEYQDEFNQELVETGISLAENLNRGNVHLVAAYPSAPINMAIDLPEFNTSGYENGIRGQHLINMKALRQKFGIDEDHTHVREGFPEEVIPEVAKEIEAELVILGTVGRTGLSAALLGNTAEHVISKLSCNLLGIKPSKKDD”, the protein production was “failed”.
In the case of “MLDPATIVAVPAPGRACGPCTLCCKVYDVPAVESPAGRWCRHVRSGGGCGIHAERPDHCRAFHCLWMTETWIGPEWRPDRAKMVLSLDPVTRFLNVQVDPGQAGAWKRAPYHDQLRRWAAASLPLQRYVLVHVNKVTTVVLPDRDVALGTFGPGDRLVGRERMTPAGMTADVEKVSQLA”, the protein production was “failed”.
